Results from PMC5051681.
Values belong to the substance of their own block, whether it stands above or below them.

What was measured:
[1] = target: C1a - 10 nm - C2 SPASM biosensor (human) (UniProt P17252); test: FRET or BRET; change in heteroFRET after addition of free calcium against the concentration of C1a - 10 nm - C2; Hill binding model; half-maximal value taken as an estimate of the dissociation constant
PKC alpha C2 = PKC alpha C2 (UniProt P17252); conditions: cited from earlier work
[2] = target: PKCα sensor (N-terminal mCer, C-terminal mCit) with a TEV protease site between the C2 and kinase domains (human) (UniProt P17252); test: dynamic light scattering; sensor pre-treated with TEV protease or BSA, or C2-mCit; relative increase in particle mass after 2 min with free calcium, matched concentration
[3] = target: regulatory domains of PKCα with mCer (N-terminal TEV product of the PKCα sensor cut between C2 and kinase) (human); test: as above

Kd [1]: 61.1 nM
Substance: C1a - 10 nm - C2 SPASM biosensor (from UniProt P17252 32-100; P17252 158-292)

Substance: PKC alpha C1a (from UniProt P17252)
Kd (PKC alpha C2): 4 nM

mean particle size increase after free calcium (DLS, normalised) [2]: 5.61
Substance: PKCα sensor (N-terminal mCer, C-terminal mCit) with a TEV protease site between the C2 and kinase domains (from UniProt P17252 1-672) (natural protein)

mean particle size increase after free calcium (DLS, normalised) [3]: 2.61
Substance: regulatory domains of PKCα with mCer (N-terminal TEV product of the PKCα sensor cut between C2 and kinase) (domain or fragment)
